Reference: US20200123233A1 (published 2020)
Where a chain is given by its changes, count along the chain named.

How the values were obtained:
[1] = target: T1, Glycoprotein G of rabies virus strain CVS-11 (Challenge Virus Standard-11, ATCC VR 959) (rabies virus, strain CVS-11); experiment: cell-based or functional assay
T1 chain: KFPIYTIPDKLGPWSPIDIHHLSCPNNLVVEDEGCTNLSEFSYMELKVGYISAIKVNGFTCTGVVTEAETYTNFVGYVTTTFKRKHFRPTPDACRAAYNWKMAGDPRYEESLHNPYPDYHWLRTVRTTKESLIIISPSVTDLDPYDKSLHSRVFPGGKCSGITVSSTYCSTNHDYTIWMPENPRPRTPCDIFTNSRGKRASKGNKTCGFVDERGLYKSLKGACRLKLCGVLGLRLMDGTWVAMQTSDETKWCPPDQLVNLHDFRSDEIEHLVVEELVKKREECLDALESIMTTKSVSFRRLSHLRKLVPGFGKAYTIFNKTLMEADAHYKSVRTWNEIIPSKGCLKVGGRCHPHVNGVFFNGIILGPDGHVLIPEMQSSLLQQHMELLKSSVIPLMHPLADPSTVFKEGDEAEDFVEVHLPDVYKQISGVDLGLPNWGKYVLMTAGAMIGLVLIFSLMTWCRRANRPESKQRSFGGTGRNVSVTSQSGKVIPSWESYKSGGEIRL

[2] = target: authentic influenza antigen of A/PR/8/34 (ATCC VR-1469), serotype H1N1 (influenza A virus A/PR/8/34 (H1N1), UniProt P03452 18-565); experiment: ELISA, coated authentic AIV antigen, E. coli culture supernatant, anti-c-myc-HRP
[3] = target: T2, FTM-NN protein (membrane anchorless form of the Long fusion protein, 70 kDa) (human respiratory syncytial virus, …, UniProt P12568 26-524); experiment: competition ELISA on coated FTM-NN; competitor biotinylated Synagis Fab
T2 construct: domain: membrane anchorless form of the fusion protein

[4] = target: F protein of RSV Long (RSV LONG M-2) (human respiratory syncytial virus, …, UniProt P12568 26-574); experiment: cell-based or functional assay
F protein of RSV A-2 = F protein of RSV A-2 (human respiratory syncytial virus, …, UniProt P03420 26-574); experiment: cell-based or functional assay
F protein of RSV B-1 = F protein of RSV B-1 (human respiratory syncytial virus, …, UniProt P13843 26-574); experiment: cell-based or functional assay
[5] = target: hRSV (inactivated hRSV strain Long, Hytest #8RSV79), F protein on virus particles (human respiratory syncytial virus, …, UniProt P12568 26-574); experiment: binding ELISA on coated hRSV (Hytest), anti-VHH detection
[6] = target: T2, FTM-NN protein (membrane anchorless …); experiment: SPR (Biacore), FTM-NN immobilised

B1: 213H7-15GS-214 F8 (VHH)
chain: EVQLVESGGGLVQAGGSLRLSCAASGRTLSSYRMGWFRQAPGKEREFISTISWNGRSTYYADSVKGRFIFSEDNAKNTVYLQMNSLKPEDTAVYYCAAALIGGYYSDVDAWSYWGPGTQVTVSSGGGGSGGGGSGGGGSEVQLVESGGDLVQAGGSLRLSCVASGSTYSINAMGWYRQAPGKLRELVAAFRTGGSTDYADSVKGRFTISRDTAKNTVYLQMNSLKPEDTAVYYCNAEVIYYPYDYWGQGTQVTVSS
[1]
  CVS neutralizing antibody titre, nM IC50 (RFFIT): 0.33 nM
  Potency (IU/nM) increase versus monovalent (RFFIT): 271 fold

B2: IV2 (VHH)
VHH: QVQLQESGGGLVQTGGSLRLSCAASGRTFGGYAMAWFRQAPRKGREFVASVTWNGGATDYAGSVKDRFTVSRDTANNTMYLQMNSLKPEDTAVYICGAASGYRSTDRLSDPGWTNYWGQGTQVTVSS
[2]
  Extinction at 450 nm in ELISA: 0.048 extinction at 450 nm

B3: IV7 (VHH)
VHH: QVQLQQSGGGLVQTGGSLRLSCAASGRTFGGYAMAWFRQAPGKGREFVAAVTWSAGTTNYAGSVKDRFTVSRDNANNTMYLQMNSLKPEDTAVYICGAASGYRSTDRLSEPAWINYWGQGTQVTVSS
[2]
  Extinction at 450 nm in ELISA: 0.048 extinction at 450 nm

B4: IV10 (VHH)
VHH: B3 VHH with Q6E, T14A, A24T, T28P, S100T, E110D, A112N, I114V
[2]
  Extinction at 450 nm in ELISA: 0.047 extinction at 450 nm

B5: RSVPMP15H8 (VHH)
VHH: EVQLVESGGGLVQAGGSLRLSCAASGRSFSNYVLGWFRQAPGKEREFVAAISFRGDSAIGAPSVEGRFTISRDNAKNTGYLQMNSLVPDDTAVYYCGAGTPLNPGAYIYDWSYDYWGRGTQVTVSS
[3]
  EC50: 0.039 µM
[4]
  RSV neutralization IC50 (nM) (n = 2), Long: 200 nM
F protein of RSV A-2
  RSV neutralization IC50 (nM) (n = 2), A-2: 218 nM
F protein of RSV B-1
  RSV neutralization IC50 (nM) (n = 2), B1: 2340 nM
[5]
  EC50: 0.00083 µM
[6]
  Kd: 0.016 µM
  koff: 0.021 s⁻¹
  kon: 1.2e+06 M⁻¹ s⁻¹
